Results published in paper PMC7617869, “Molecular glues that inhibit deubiquitylase activity and inflammatory signaling” (Nature Structural & Molecular Biology, 2025).
Several values for one entry are separate records, joined by “and”; a condition that tells them apart may be missing. Identical values can stand only once.

What was measured:
Type in all cases: biochemical
[1] = molecular target: T1, BRISC (Homo sapiens, UniProt P46736+Q15018+Q9NXR7); assay: BRISC DUB activity assay (IQF K63-linked diubiquitin); details: BRISC WT
T1 construct: made in house; host or cells: Spodoptera frugiperda (Sf9) insect cells, MultiBac
Procedure: (§1) IQF assays were performed in DUB reaction buffer containing 50 mM HEPES–NaOH pH 7.0, 100 mM NaCl, 0.1 mg ml^−1 BSA, 1 mM DTT and 0.03% v/v Brij-35. […] The final concentration of BRISC WT, all BRISC mutants, HsBRISCΔLoop, MmBRISC and DrBRISCΔNΔC was 1 nM. Other enzymes were tested at the following concentrations: 5 nM ARISC (FL), 10 nM CfBRISCΔNΔC, 250 nM AMSH* (ref. [43]), 500 nM USP2 and 1 μM trypsin (Sigma, 9002-07-7). For Michaelis–Menten experiments, 1 nM BRISC with 0–1 μM IQF K63-linked diubiquitin substrate was used. Michaelis–Menten analyses and Lineweaver–Burk plots were calculated using GraphPad Prism (version 9.0).
(§2) To assess enzymatic activity, BRISC complexes were diluted to concentrations between 1 nM and 50 nM. […] Then, 20-μl enzyme reactions were carried out in 384-well black flat-bottom low-flange plates (Corning, 35373). DUB activity was measured using IQF K63-linked diubiquitin (LifeSensors, DU6303) at 50 nM. Cleaved diubiquitin was monitored by measuring fluorescence intensity (excitation, 544 nm; emission, 575 nm; dichroic mirror, 560 nm). Fluorescence intensity was measured every minute for 30 min at 30 °C. Fluorescence intensity units were plotted against time to generate a linear reaction progress curve, where the initial velocity (V0) corresponds to the gradient of the curve (typically achieved within 15 min). IC50 values were calculated using the GraphPad Prism (version 9.0) built-in dose–response equation for inhibitor concentration versus response (variable slope).

[2] = molecular target: BRISC BRCC36 W130A (Homo sapiens, UniProt P46736+Q15018+Q9NXR7, W130A); assay: BRISC mutant IQF assay: BRCC36 W130A
Procedure: as §1, §2

[3] = molecular target: BRISC BRCC36 L169A (Homo sapiens, UniProt P46736+Q15018+Q9NXR7, L169A); assay: BRISC mutant IQF assay: BRCC36 L169A
Procedure: as §1, §2

[4] = molecular target: BRISC Abraxas2 T140A (Homo sapiens, UniProt P46736+Q15018+Q9NXR7, T140A); assay: BRISC mutant IQF assay: Abraxas2 T140A; details: for Normalised V0: Abraxas2 T140A
Procedure: as §1, §2

[5] = molecular target: BRISC BRCC45 R137A (Homo sapiens, UniProt P46736+Q15018+Q9NXR7, R137A); assay: BRISC mutant IQF assay: BRCC45 R137A
Procedure: as §1, §2

[6] = molecular target: BRISC BRCC45 F140A (Homo sapiens, UniProt P46736+Q15018+Q9NXR7, F140A); assay: BRISC mutant IQF assay: BRCC45 F140A
Procedure: as §1, §2

[7] = molecular target: BRISC BRCC45 C245A (Homo sapiens, UniProt P46736+Q15018+Q9NXR7, C245A); assay: BRISC mutant IQF assay: BRCC45 C245A
Procedure: as §1, §2

[8] = molecular target: BRISC BRCC45 D248R (Homo sapiens, UniProt P46736+Q15018+Q9NXR7, D248R); assay: BRISC mutant IQF assay: BRCC45 D248R
Procedure: as §1, §2

B1: SHMT2: serine hydroxymethyltransferase 2, metabolic enzyme and endogenous inhibitor of BRISC DUB activity (protein)
chain: QLVRMAIRAQHSNAAQTQTGEANRGWTGQESLSDSDPEMWELLQREKDRQCRGLELIASENFCSRAALEALGSCLNNKYSEGYPGKRYYGGAEVVDEIELLCQRRALEAFDLDPAQWGVNVQPYSGSPANLAVYTALLQPHDRIMGLDLPDGGHLTHGYMSDVKRISATSIFFESMPYKLNPKTGLIDYNQLALTARLFRPRLIIAGTSAYARLIDYARMREVCDEVKAHLLADMAHISGLVAAKVIPSPFKHADIVTTTTHKTLRGTRSGLIFYRKGVKAVDPKTGREIPYTFEDRINFAVFPSLQGGPHNHAIAAVAVALKQACTPMFREYSLQVLKNARAMADALLERGYSLVSGGTDNHLVLVDLRPKGLDGARAERVLELVSITANKNTCPGDRSAITPGGLRLGAPALTSRQFREDDFRRVVDFIDEGVNIGLEVKSKTAKLQDFKSFLLKDSETSQRLANLRQRVEQFARAFPMPGFDEH
Normalised V0 ([1]; SHMT2 0.00347222 nM): 0.9504 and 1.044 and 0.9816
Normalised V0 ([1]; SHMT2 0.0347222 nM): 0.8685 and 1.128 and 1.002
Normalised V0 ([1]; SHMT2 0.347222 nM): 0.5106 and 0.9767 and 0.8269
Normalised V0 ([1]; SHMT2 1.04167 nM): 0.4439 and 0.8387 and 0.81
SHMT2 inhibition of BRISC mutant [2]: reduced BRISC inhibition by SHMT2
Normalised V0 ([2]; SHMT2 0.00347222 nM): 1.237 and 1.127 and 0.9914
Normalised V0 ([2]; SHMT2 0.0347222 nM): 1.202 and 1.0039 and 1.016
Normalised V0 ([2]; SHMT2 0.347222 nM): 1.306 and 1.037 and 1.029
Normalised V0 ([2]; SHMT2 1.04167 nM): 1.133 and 0.9683 and 1.009
Normalised V0 ([2]; SHMT2 3.125 nM): 1.059 and 0.8824 and 0.9607
Normalised V0 ([2]; SHMT2 6.25 nM): 1.076 and 0.9844 and 0.926
Normalised V0 ([2]; SHMT2 12.5 nM): 0.9633 and 0.8672 and 0.8727
Normalised V0 ([2]; SHMT2 25 nM): 0.8129 and 0.833 and 0.8407
Normalised V0 ([2]; SHMT2 50 nM): 0.7117 and 0.7254 and 0.8132
Normalised V0 ([2]; SHMT2 100 nM): 0.5212 and 0.5553 and 0.3708
Normalised V0 ([2]; SHMT2 200 nM): 0.4561 and 0.482 and 0.3879
SHMT2 inhibition of BRISC mutant [3]: reduced BRISC inhibition by SHMT2
Normalised V0 ([3]; SHMT2 0.00347222 nM): 1.281 and 0.8219 and 0.8866
Normalised V0 ([3]; SHMT2 0.0347222 nM): 1.039 and 0.8402 and 0.9713
Normalised V0 ([3]; SHMT2 0.347222 nM): 1.104 and 0.8836 and 0.9494
Normalised V0 ([3]; SHMT2 1.04167 nM): 1.083 and 0.823 and 0.89
Normalised V0 ([3]; SHMT2 3.125 nM): 0.9817 and 0.7218 and 0.8098
Normalised V0 ([3]; SHMT2 6.25 nM): 1.047 and 0.8687 and 0.8472
Normalised V0 ([3]; SHMT2 12.5 nM): 0.7117 and 0.4856 and 0.677
Normalised V0 ([3]; SHMT2 25 nM): 0.5132 and 0.7026 and 0.4911
Normalised V0 ([3]; SHMT2 50 nM): 0.4474 and 0.4092 and 0.7591
SHMT2 inhibition of BRISC mutant ([4]; Abraxas 2 T140A): reduced BRISC inhibition by SHMT2
Normalised V0 ([4]; SHMT2 0.00347222 nM): 0.9459 and 1.003 and 1.126
Normalised V0 ([4]; SHMT2 0.0347222 nM): 0.9478 and 0.9048 and 1.065
Normalised V0 ([4]; SHMT2 0.347222 nM): 1.002 and 0.9158 and 1.209
Normalised V0 ([4]; SHMT2 1.04167 nM): 0.9422 and 0.8854 and 1.017
Normalised V0 ([4]; SHMT2 3.125 nM): 0.7382 and 0.7698 and 1.0401
Normalised V0 ([4]; SHMT2 6.25 nM): 0.8737 and 0.7897 and 1.032
Normalised V0 ([4]; SHMT2 12.5 nM): 0.7421 and 0.6608 and 0.8191
Normalised V0 ([4]; SHMT2 25 nM): 0.6241 and 0.5064 and 0.8208
Normalised V0 ([4]; SHMT2 100 nM): 0.3175 and 0.5076
Normalised V0 ([4]; SHMT2 200 nM): 0.2755 and 0.2287 and 0.3324
Normalised V0 ([5]; SHMT2 0.00347222 nM): 1.014 and 1.027 and 1.065
Normalised V0 ([5]; SHMT2 0.0347222 nM): 1.097 and 0.9804 and 1.087
Normalised V0 ([5]; SHMT2 0.347222 nM): 0.9721 and 1.019 and 0.9944
Normalised V0 ([5]; SHMT2 1.04167 nM): 0.7112 and 0.6836 and 0.8504
Normalised V0 ([5]; SHMT2 3.125 nM): 0.4073 and 0.4138 and 0.6039
Normalised V0 ([5]; SHMT2 6.25 nM): 0.3218 and 0.2523 and 0.3959
Normalised V0 ([5]; SHMT2 12.5 nM): 0.1807 and 0.195 and 0.2065
Normalised V0 ([5]; SHMT2 25 nM): 0.1093 and 0.1844 and 0.1637
Normalised V0 ([5]; SHMT2 50 nM): 0.06765 and 0.12 and 0.1128
Normalised V0 ([5]; SHMT2 100 nM): 0.03288 and 0.04915 and 0.05253
SHMT2 inhibition of BRISC BRCC45 mutants ([5]; b47 speaks of all BRCC45 mutants): without affecting SHMT2 inhibition
Normalised V0 ([6]; SHMT2 0.00347222 nM): 0.9456 and 0.9686 and 0.8245
Normalised V0 ([6]; SHMT2 0.0347222 nM): 0.8694 and 1.026 and 0.8239
Normalised V0 ([6]; SHMT2 0.347222 nM): 0.9307 and 0.9114 and 0.8975
Normalised V0 ([6]; SHMT2 1.04167 nM): 0.8692 and 0.886 and 0.7736
Normalised V0 ([6]; SHMT2 3.125 nM): 0.8001 and 0.6891 and 0.7189
Normalised V0 ([6]; SHMT2 6.25 nM): 0.7321 and 0.6833 and 0.7086
Normalised V0 ([6]; SHMT2 12.5 nM): 0.4577 and 0.4521 and 0.5184
Normalised V0 ([6]; SHMT2 25 nM): 0.3014 and 0.3302 and 0.288
Normalised V0 ([6]; SHMT2 50 nM): 0.2533 and 0.2485 and 0.2535
Normalised V0 ([6]; SHMT2 100 nM): 0.2137 and 0.184 and 0.161
Normalised V0 ([7]; SHMT2 0.00347222 nM): 0.9588 and 1.144 and 1.038
Normalised V0 ([7]; SHMT2 0.0347222 nM): 0.8809 and 1.071 and 0.9852
Normalised V0 ([7]; SHMT2 0.347222 nM): 0.7622 and 1.011 and 1.053
Normalised V0 ([7]; SHMT2 1.04167 nM): 0.7409 and 0.9691 and 1.004
Normalised V0 ([7]; SHMT2 3.125 nM): 0.5581 and 0.7111 and 0.7493
Normalised V0 ([7]; SHMT2 6.25 nM): 0.4848 and 0.6695 and 0.6719
Normalised V0 ([7]; SHMT2 12.5 nM): 0.4215 and 0.5643 and 0.477
Normalised V0 ([7]; SHMT2 25 nM): 0.501 and 0.3965 and 0.329
Normalised V0 ([7]; SHMT2 50 nM): 0.391 and 0.3153 and 0.2153
Normalised V0 ([7]; SHMT2 100 nM): 0.3584 and 0.2521 and 0.1837
Normalised V0 ([7]; SHMT2 200 nM): 0.2257 and 0.1737 and 0.1153
Normalised V0 ([8]; SHMT2 0.00347222 nM): 0.9357 and 1.056 and 1.018
Normalised V0 ([8]; SHMT2 0.0347222 nM): 0.8867 and 1.018 and 0.9695
Normalised V0 ([8]; SHMT2 0.347222 nM): 0.882 and 0.7691 and 0.9453
Normalised V0 ([8]; SHMT2 1.04167 nM): 0.8534 and 1.006 and 0.8339
Normalised V0 ([8]; SHMT2 3.125 nM): 0.5795 and 0.5378 and 0.6917
Normalised V0 ([8]; SHMT2 6.25 nM): 0.5339 and 0.4364 and 0.5979
Normalised V0 ([8]; SHMT2 12.5 nM): 0.3281 and 0.3163 and 0.4228
Normalised V0 ([8]; SHMT2 25 nM): 0.3612 and 0.2677 and 0.38
Normalised V0 ([8]; SHMT2 200 nM): 0.05731 and 0.07178 and 0.09996
